# Experiment: soluble on expression in E. coli; label from the status in PepcDB or PDB records
row,Sequence,soluble on expression in E. coli
1,MGSDKIHHHHHHMKLIESVPNFSEGRRKEVVEKIVAEAKKYDRVWVLDWSMDADHNRSVITLVGEPENLINALFDMTKKAAELIDLRNHTGQHPRMGAADVIPLVPLYNTTMEECVEYSKILGRRIGEELGIPVYLYEKSATRPERQNLADIRKGEFEGFFEKIKDPLWKPDFGPDRVHPTAGVTAVGAREFLIAFNVNLGTRDVKIAEKIARAIRFSSGGLRYVKAIGVDLKGRGVVQVSINITNHKKTPLYRVFELIKMEAERYGVPVLGSEIVGLFPLESLLKTVSYYLRTDLNAKKVIESNLLEILVRESEK,not soluble
2,GMTGLSQSQASPMQIQPGNAAFNPWTDAALDTIRDVNQALTLYAEMRVVPAHHDAFLAAIDTVSAKLRVLPGFLSLALKQMSGDSTMVKNYPETYKGVLATAYLDGVAAGTQPYFYNLFVRFADGRAARAAGFEALFETHIHPLLHAMAPRGGDGPELLAYRAVLQSVVAGDRHAIYRGAEEIRSFLRRPVELPERETVTVENHVMVPEDKHAAWEPQVAILLQVAQDTFEPQDEPSGVGLPGARDNRYYRKALSTEILRNAHADGGLRAYIMHGVWESVWDHENSHLDPRFLAAAGPVGAAAVVGPVEPFYLTRRLVVAD,soluble
3,MIRNKAFVVRLYPNAAQTELINRTLGSARFVYNHFLARRIAAYKESGKGLTYGQTSSELTLLKQAEETSWLSEVDKFALQNSLKNLETAYKNFFRTVKQSGKKVGFPRFRKKRTGESYRTQFTNNNIQIGEGRLKLPKLGWVKTKGQQDIQGKILNVTVRRIHEGHYEASVLCEVEIPYLPAAPKFAAGVDVGIKDFAIVTDGVRFKHEQNPKYYRSTLKRLRKAQQTLSRRKKGSARYGKAKTKLARIHKRIVNKRQDFLHKLTTSLVREYEIIGTEHLKPDNMRKNRRLALSISDAGWGEFIRQLEYKAAWYGRLVSKVSPYFPSSQLCHDCGFKNPEVKNLAVRTWTCPNCGETHDRDENAALNIRREALVAAGISDTLNAHGGYVRPASAGNGLRSENHATLVVLEHHHHHH,soluble
4,KGDWAWQAGFSLSGVKNEITDMKGVEDIKDNTINREGEAIGSYYGLKAIGIYRTQADLDRVNANGQKILQNNQEPQLGDIMYEDIDNNGNINDADRTIIGNPFPKMQYSFNLGFSYKDFDVNTFWQGIAGVYRYNWDETTISNGGNKTSRWLDRWSESNPNGSMPRLGGTINNNYSSFWLTKGDYLRLKNLEIGYTFRQREFLTKLGVQSIRLYLAGTNLLTFTSLDDYDPEKLSTDSRNDVHPNTRTYSFGVNVKF,not soluble
5,MIKIGAHMPISKGFDRVPQDTVNIGGNSFQIFPHNARSWSAKLPSDEAATKFKREMKKHGIDWENAFCHSGYLINLASPKDDIWQKSVELLKKEVEICRKLGIRYLNIHPGSHLGTGEEEGIDRIVRGLNEVLNNTEGVVILLENVSQKGGNIGYKLEQLKKIRDLVDQRDRVAITYDTCHGFDSGYDITKKEGVEALLNEIESLFGLERLKMIHLNDSKYPLGAAKDRHERIGSGFIGEEGFAVFFSFKEIQEVPWILETPGGNEEHAEDIKKVFEIIEKFGIEVD,soluble
6,MNIYTDKKVVAVGGGHGLGRMLAALKDFGSNATGIVATTDNGGSTGRIRHCQGGIAWGDTRNCINQLITEPSISSMMFEYRFKGTGELDGHNLGNLMLTALDNLSVRPLDAINLIRNMLKVDVNILPMSEHPSDLSALSVNGQWVTGETNVDEMETDLRRLDLSPEVPATKEAVTALAEADAIILGPGSFLTSIMPPLLLPELGKAIAANRKAKVIFVANLSPEYGPAGRMSMAQKLEWCERACQGRRIDVVLAEETDQKVLEQWNVVTEPLASTNRDWRHDRDKLKAAIENQLLTKLEHHHHHH,soluble
7,MSNQRSSLKHLNTFALPAYASNVISAGSVETLIAAWHESKAKRQPVLLLGEGSNVLFIKNFSGTVLLNRIMGITSTEDSAAWYLHVGAGENWHQLVCHSLQNNMPGLENLALIPGCVGSAPIQNIGAYGVELKQVCEYVDLLDMDKGTIQRISAEECQFGYRDSIFKHRYGNGFAIVSVGIKLMKSWTPTLGYGDLIHMDPLTVTATDIFNSVCTMRRSKLPDPMVTGNAGSFFKNPVVSAAIAEEIVHCYPNAPHYLQPDGSVKLAAGWLIDQCSLKGYQIGGAAVHQQQALVLINQSEATGQDVIHLARYIRQQVAQRFSIWLEPEVRFIADNGEVNAVEHLS,not soluble
8,MGSDKIHHHHHHMNPKMIRSLKAFTRTVELNSMSAAANELHMTVSAISQQLQRLENDNGISLFHRNTRSLSLTEAGQVFYQSCLDMLAIAAKNQERWDQLTNQPQGQIKIIAPVGFGGGLLSEPLKQLQHEFANVSFQLHMTDEPIDLITAGADLAIRIGPLADSTLYARHLADWHMVPCIAAEHPAAENSIKSFDDLPEGCFIGHIPSLPNKDFPKPKVLLNNMQTVVQLTLDGVGYALLPQPEIKHYIESGRLLRLLPEWEGSPYSVHAVLPIKDNIPAKTERTIEVLSHFFHRL,not soluble
9,NLSSSESQESTGQHQVTVAAVQGNVPRLGLDFNAQRRAVLANHVQETRKLTEQVDFIVWPENSSDVDPFADVRARNLINSAVASVQAPIVVGTVTTDEVGARNAMVVFDPETGEGDWHVKKFLQPFGEWMPWRDFFRKFSSLVDLAGDFKPGEGSGVVRVHAAQLGETVKLGISTCYEVAFDQAGRDAVLAGAQILATPTNNATFGFTDMTYQQLAMSRMRAIELDRAVVVAATSGVSAIVTPRGEVLQHSKIFESATLVQSLPLKETITFSARYGTLLE,not soluble
10,MGSDKIHHHHHHMSMNISGLGNAYSGVNTNSKQYKALKEKGWLEGVIQNEAMMSPEGKMIYEIFGGRDTIVNNLMKQFDSDGDLLNANGVAGMDVTGKGTSWQKLTNVSEEYRQKMFDNVKKEFIQENGVSNGDTTKRSDIFKDYQLSVNKDKRLSGTWTLEQYEGQYRSAMYAAVKAANPNWKPGQKFDTSILDNVTRESAEATLVKNGNRLVRNSIDVSV,not soluble
11,MGSDKIHHHHHHMAYPFNHKEFVAMMEQYNLKSNSITIPEHTILNDLVTENRDCVYLLKSGILAGYIDFDNDKIYSIFTSNFFMGYYTIFDNASLVLTYQTLTECELIIYKKKDIEYSLSLFPENFSFQYTIMRTIAKHGYYKSLLQYRDKKDQLAFVFEMLVKILDIPVEDGVAVLPKSISTTVIKNYCTLSKAFFYSQLKELKEAGIISKVKLQWRINMEALSEKNNSIN,not soluble
12,MSLLGTGYLPDGTHMPGANPNLNIAAFLKENHIDLHTTVYPGGGLDPYTSVEFLNIVSKHCKTVFSNANEVLNTIPNSIYVPGIINTEFYHYNQKVSTKPIQMIFAAHNAERKGFPLLAQAFNKLDDQFHLHIVGNWENSLHLLTNNNYTFWGMLDLEKLKQLYEQSHVFISCSTKDKFAIDGFPTTAAADAMATGCILVSTNHRNDNRILKPGEDYLKIEADSNSILSNLFWIKMNFEKALEIGKSGAIKMDKYFNYKTNVNFKLSHIF,not soluble
13,MTVSRFLRNPEQVSVALRGKIAAALDELGYIPNRAPDILSNATSRAIGVLLPSLTNQVFAEVLRGIESVTDAHGYQTMLAHYGYKPEMEQERLESMLSWNIDGLILTERTHTPRTLKMIEVAGIPVVELMDSQSPCLDIAVGFDNFEAARQMTTAIIARGHRHIAYLGARLDERTIIKQKGYEQAMLDAGLVPYSVMVEQSSSYSSGIELIRQARREYPQLDGVFCTNDDLAVGAAFECQRLGLKVPDDMAIAGFHGHDIGQVMEPRLASVLTPRERMGSIGAERLLARIRGESVTPKMLDLGFTLSPGGSI,not soluble
14,MELKEGDEILNVAGPLGNPAPMEKFGKILAIGAYVGIAEVYPIAKAWQEIGNDVTTLHVTFEPMVILKDYFEKAVSRHIVEPVKIDQEKSFQENTKNVTKALTAKVKELLDNENWDLVFMVGPPGDQKAVFEVVKKYGIPMKVDLHPIMLEHHHHHH,not soluble
15,MTEKSLKLFIVLSRAYRSINDHMNKHIHKHGLNPTEFAVLELLYHKGDQPLQQIGDKILLASGSITYVVDKLEQKELLIRKASPTDRRVTFAQITEKGIGLLNDIFPDHAAEIDEMISVLSEEEVEMCTEMLKRVGLNAKQFHNK,not soluble
16,MLFLDSQFVYGAGAQLFNHFCYFFGTQQKFPPFLSIDENQYIIFIATEQFIREIKLLIALLLNENTAKYFQKALLCLKERKLVKIAKVGNVIEFKNGLTGVVEKVNENSVIVDVTIMDNYRDLELDSLTVVNHKNYKIIRDSYLEHHHHHH,soluble

# — the DeepSol protein solubility set
